Reference: publication PMC4463457

B1: VSV-SNAP-hD3 (VSV- and SNAP-tagged human dopamine D3 receptor) [modified: SNAP tag covalently labelled with SNAP-Lumi4-Tb or SNAP-Red; SNAP tag covalently labelled with SNAP-Lumi4-Tb or SNAP-Red] [human] / itself (parent)
chain: MASLSQLSGHLNYTCGAENSTGASQARPHAYYALSYCALILAIVFGNGLVCMAVLKERALQTTTNYLVVSLAVADLLVATLVMPWVVYLEVTGGVWNFSRICCDVFVTLDVMMCTASILNLCAISIDRYTAVVMPVHYQHGTGQSSCRRVALMITAVWVLAFAVSCPLLFGFNTTGDPTVCSISNPDFVIYSSVVSFYLPFGVTVLVYARIYVVLKQRRRKRILTRQNSQCNSVRPGFPQQTLSPDPAHLELKRYYSICQDTALGGPGFQERGGELKREEKTRNSLSPTIAPKLSLEVRKLSNGRLSTSLKLGPLQPRGVPLREKKATQMVAIVLGAFIVCWLPFFLTHVLNTHCQTCHVSPELYSATTWLGYVNSALNPVIYTTFNIEFRKAFLKILSC

Variants of: B1
Assay: htrFRET
Conditions: with itself; HEK293T cells transfected with increasing amounts of construct; read off a plot

Point of comparison: chain 1 F394A L395A K396A, ratio to parent 0.5. Against it:
- chain 1 D187A I190A V194A L199A — higher, 0.89
- chain 1 R210A Y212A V213A K216A — higher, 0.76
- chain 1 Y31A Y32A L34A S35A — higher, 1
